According to IntAct's records for PubMed 16000169:

B1: DNA polymerase delta subunit 3 (Homo sapiens), Q15054 (parent)
chain: MADQLYLENIDEFVTDQNKIVTYKWLSYTLGVHVNQAKQMLYDYVERKRKENSGAQLHVTYLVSGSLIQNGHSCHKVAVVREDKLEAVKSKLAVTASIHVYSIQKAMLKDSGPLFNTDYDILKSNLQNCSKFSAIQCAAAVPRAPAESSSSSKKFEQSHLHMSSETQANNELTTNGHGPPASKQVSQQPKGIMGMFASKAAAKTQETNKETKTEAKEVTNASAAGNKAPGKGNMMSNFFGKAAMNKFKVNLDSEQAVKEEKIVEQPTVSVTEPKLATPAGLKKSSKKAEPVKVLQKEKKRGKRVALSDDETKETENMRKKRRRIKLPESDSSEDEVFPDSPGAYEAESPSPPPPPSPPLEPVPKTEPEPPSVKSSSGENKRKRKRVLKSKTYLDGEGCIVTEKVYESESCTDSEEELNMKTSSVHRPPAMTVKKEPREERKGPKKGTAALGKANRQVSITGFFQRK

Variants of: B1
Settings: with pcna_human PCNA

Row | Variant | effect of a mutation on the interaction
1 | K320N;R321G;R322G | disrupting interaction
